The test system of one data set is HEK 293 cells (293). Nature of the data set: Cell viability of untransduced HEK 293 cells. The note with it: 293 cells (low CD276); various concentrations (nM); FIG. 7. The procedure: (§1) HEK 293 cells (293) or HEK 293 cells transduced with CD276 (293/CD276) were treated with MMAE alone, m8524 (m276) (SEQ ID NOs: 26 and 27) antibody alone, m825 (irrelevant control antibody)-ADC, or m8524-ADC. The drug of the ADCs was MMAE.

The next data set has as its system 293/CD276 cells. Nature of the data set: Cell viability of HEK 293 cells transduced with CD276. The note with it: FIG. 7. How it is done:
as §1

For data set [1], the target named is T1, human CD276 expressed on the surface of HEK 293 cells (293/CD276) (Homo sapiens, UniProt Q5ZPR3).
T1 construct: expressed in transfected cells; host or cells: HEK293 cells
T1 sequence (Q5ZPR3 29-534): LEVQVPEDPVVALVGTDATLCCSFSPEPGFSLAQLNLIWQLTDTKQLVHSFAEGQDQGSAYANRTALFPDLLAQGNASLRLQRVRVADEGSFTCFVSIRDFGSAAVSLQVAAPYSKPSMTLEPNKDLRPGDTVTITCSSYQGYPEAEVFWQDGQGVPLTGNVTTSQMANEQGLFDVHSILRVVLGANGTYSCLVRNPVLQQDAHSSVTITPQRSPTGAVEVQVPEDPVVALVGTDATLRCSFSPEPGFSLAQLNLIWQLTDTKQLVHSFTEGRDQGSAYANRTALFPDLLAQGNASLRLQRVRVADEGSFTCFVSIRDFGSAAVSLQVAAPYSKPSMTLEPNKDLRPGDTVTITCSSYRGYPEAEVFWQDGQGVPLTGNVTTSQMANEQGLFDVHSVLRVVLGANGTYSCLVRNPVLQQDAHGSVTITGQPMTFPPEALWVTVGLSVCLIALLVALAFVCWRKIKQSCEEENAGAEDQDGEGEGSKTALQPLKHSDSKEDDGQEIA
Nature of the data set: Flow cytometry binding to HEK293 cells transduced with human CD276. Type of data set: cell-based. The note with it: FITC-labeled IgG1; FIG. 5. How it is done:
HEK293 cells were untransduced or transduced to express human CD276. The cells were cultured with FITC-labeled human anti-CD276 antibody m8524 IgG1 (SEQ ID NOs: 26 and 27). The binding of the FITC-labeled human anti-CD276 antibody m8524 IgG1 to human CD276 expressed on the cell surface was measured by flow cytometry.

The subject of data set [2] is Pan02 pancreatic adenocarcinoma tumors, tumor vasculature and normal tissues. Nature of the data set: In vivo localization of FITC-labeled antibody after IP injection into Pan02 tumor-bearing mice (immunofluorescence). The following applies: FITC-labeled IgG1 IP; for localization/staining in tumor (tumor cells and tumor vasculature): co-stain anti-CD31/anti-Meca32. The procedure:
CD276 KO mice and CD276 WT mice each bearing Pan02 pancreatic adenocarcinoma tumors were injected (IP) with FITC-labeled 8524 IgG1 (SEQ ID NOs: 26 and 27) and anti-CD31/anti-Meca32. Anti-Meca32 is a monoclonal antibody with specificity for mouse endothelium.
CD276-positive, Pan02 pancreatic adenocarcinoma tumor-bearing, CD276 KO mice were injected (IP) with FITC-labeled 8524 IgG1 (SEQ ID NOs: 26 and 27) (green staining) and anti-CD31/anti-Meca32 (red staining). CD31/Meca32 positive vessels were stained red. Human tumor cells were stained green. Separate photographic images of the green and red staining were taken, and the images of the red and green staining were merged to provide a third image wherein co-localization of red and green staining provided a yellow signal.
CD276-positive, Pan02 pancreatic adenocarcinoma tumor-bearing, CD276 WT mice were injected (IP) with FITC-labeled 8524 IgG1 (SEQ ID NOs: 26 and 27) (green staining) and anti-CD31/anti-Meca32 (red staining). CD31/Meca32 positive vessels were stained red. Human tumor cells were stained green. Separate photographic images of the green and red staining were taken, and the images of the red and green staining were merged to provide a third image wherein co-localization of red and green staining provided a yellow signal.
CD276 KO mice and CD276 WT mice each bearing Pan02 pancreatic adenocarcinoma tumors were injected (IP) with FITC-labeled 8524 IgG1 (SEQ ID NOs: 26 and 27) and anti-CD31/anti-Meca32. CD31/Meca32 positive vessels in the normal liver of both CD276 KO and CD276 WT mice and in the tumor vasculature of CD276 WT mice were stained red. Human tumor cells and tumor vasculature were stained green in the CD276 WT mice. Separate photographic images of the green and red staining in the tumor of CD276 WT mice were taken, and the images of the red and green staining were merged to provide a third image wherein co-localization of red and green staining provided a yellow signal. […] The yellow signal indicated the co-localization of the CD31/Meca32 staining (red) with the CD276 staining (green).
CD276 WT mice bearing Pan02 pancreatic adenocarcinoma tumors were injected (IP) with FITC-labeled 8524 IgG1 (SEQ ID NOs: 26 and 27) and anti-CD31/anti-Meca32. CD31/Meca32 positive vessels in normal tissues, including the brain, heart, intestines, liver, muscle, spleen, and stomach of the CD276 WT mice were stained red. Pan02 tumors served as a positive control for the staining of all normal tissues. CD31/Meca32 positive vessels in the tumor vasculature of CD276 WT mice were also stained red. Human tumor cells and tumor vasculature were stained green in the CD276 WT mice. […]

Data set [3] concerns MC38 (colon cancer) tumor / normal liver margin. Nature of the data set: Co-immunofluorescence post-staining of intrahepatic MC38 tumors at the normal liver/tumor margin. The following applies: MC38 tumor-bearing WT mice; samples post-stained with FITC-labeled IgG1; FIG. 6B. An excerpt: Samples of the normal liver/tumor margin of MC38 (colon cancer)-tumor bearing, WT mice were post-stained with FITC-labeled human anti-CD276 antibody (m8524 IgG1) (SEQ ID NOs: 26 and 27) (FIG. 6B) or laminin (FIG. 6A). Photographic images were taken.

Data set [4] deals with human CD276-AP fusion protein. Nature of the data set: ELISA binding assay, human CD276. The note with it: scFv-Fc fusion protein in culture medium, serially diluted; CD276-AP coated at 2 μg/ml; FIG. 1A. How it is done:
(§2) The scFv-encoding inserts of the unique clones were digested with SfiI and ligated into modified pSecTag bearing the same set of SfiI sites and Fc-Avi tag for soluble expression. These constructs were transfected into 293T cells for expression following the manufacturer's protocol. After 72 hr of growth, the scFv-Fc fusion proteins in the culture medium were used for the ELISA binding assay.
(§3) 50 μl of the diluted human (FIG. 1A) or mouse (FIG. 1B) CD276-AP fusion protein in PBS at 2 μg/ml was coated in a 96-well plate at 4° C. overnight. Transiently expressed scFv-Fc fusion protein in the culture medium was serially diluted and added into the target protein coated wells. After washing, a 1:3000 diluted horseradish peroxidase (HRP) conjugated goat anti-human IgG antibody was added for 1 hr at RT. After washing, 3, 3, 5, 5′-Tetramethylbenzidine (TMB) substrate was added, and the optical density (O.D.) was read at 450 nm.

In data set [5] the test system is mouse CD276-AP fusion protein. Nature of the data set: ELISA binding assay, mouse CD276. The following applies: scFv-Fc fusion protein in culture medium, serially diluted; CD276-AP coated at 2 μg/ml; FIG. 1B. The procedure: as §2, §3
The mark [6] stands for this setting: CD276 WT mice bearing Pan02 tumors.

Changes are numbered by the printed parent chain. “Also recorded” adds a separate entry of the source. Non-standard residues stand in square brackets, D forms with d. Residues, ends and D or L forms follow the SMILES beside them. *: point of attachment. Dolaproine = CO[C@@H]([C@@H]1CCCN1)[C@@H](C)C(=O)O; Dil = CC[C@H](C)[C@H](NC)[C@@H](CC(=O)O)OC; X1 = C[C@@H](N*)[C@@H](O)c1ccccc1; NMeV = CN[C@H](C(=O)O)C(C)C

mouse CD276-AP fusion protein, sequence (Q8VE98 29-248 limits assumed): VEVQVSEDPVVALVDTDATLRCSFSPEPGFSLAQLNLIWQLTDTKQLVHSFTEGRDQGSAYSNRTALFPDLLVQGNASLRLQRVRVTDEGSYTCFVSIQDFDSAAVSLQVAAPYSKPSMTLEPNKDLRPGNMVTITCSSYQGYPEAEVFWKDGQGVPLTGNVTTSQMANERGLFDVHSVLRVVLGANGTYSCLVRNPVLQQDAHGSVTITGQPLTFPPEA

As for `CC[C@H](C)[C@@H]([C@@H](CC(=O)N1CCC[C@H]1[C@H](OC)[C@@H](C)C(=O)N[C@H](C)[C@@H](O)c1ccccc1)OC)N(C)C(=O)[C@@H](NC(=O)[C@@H](NC)C(C)C)C(C)C` [MMAE, monomethyl auristatin E, reference compound] (H-[NMeV]V[Dil][Dolaproine]-X1), the “cytotoxicity (cell viability, % of control)” value is “cytotoxic to all cells” in the data set on HEK 293 cells (293) and “cytotoxic to all cells” with 293/CD276 cells (293/CD276 cells (high CD276), various concentrations (nM)). In the data set on 293/CD276 cells (293/CD276 versus 293 cells), the “selectivity for CD276-expressing cells” value was “no selectivity”.

B1: m8524 IgG1: human anti-CD276 antibody m8524 in IgG1 format (SEQ ID NOs: 26 and 27), FITC-labeled (antibody, V domains shown)
VH: QVQLQQSGAEVKKPGSSVKVSCKASGGTFSSYAISWVRQAPGQGLEWMGGIIPILGIANYAQKFQGRVTITADESTSTAYMELSSLRSEDTAVYYCARGGSGSYHMDVWGKGTTVTVSS
VL: EIVLTQSPATLSLSPGERATLSCRASQSVSSYLAWYQQKPGQAPRLLIYDASNRATGIPARFSGSGSGTDFTLTISSLEPEDFAVYYCQQRSNWPPRITFGQGTRLEIK
modifications: FITC label
Regarding B1, in data set [1], the “binding to CD276-transfected 293 cells as compared to non-transfected parent 293 cells (flow cytometry)” value was “increased binding”. For the same molecule, the “staining of normal liver” value in data set [2] (CD276 WT and CD276 KO mice bearing Pan02 tumors) was “not the normal liver”. In addition, in data set [2] (setting [6]), the “staining of normal tissues (brain, heart, intestines, liver, muscle, spleen, stomach)” value is “did not stain any of the normal tissues”. The “localization/staining in tumor (tumor cells and tumor vasculature)” value in data set [2] (setting [6]) is “co-localization; also recorded: localized to both human tumor cells and tumor vasculature; also recorded: stained tumor cells and tumor vasculature”; in data set [2] (CD276 WT mice bearing Pan02 tumors, listed as 8524 IgG1) it was “stained tumor cells (green) and tumor vasculature”. Further, the “staining at the normal liver/tumor margin” value in data set [3] is recorded as “stained tumor cells but not normal tissue”.

B2: m852: anti-CD276 antibody clone, heavy chain comprising SEQ ID NO: 7 and light chain comprising SEQ ID NO: 8 (antibody, V domains shown)
VH: QVQLQQSGAEVKKPGSSVKVSCKASGGTFSSYAISWVRQAPGQGLEWMGGIIPILGIANYAQKFQGRVTITADESTSTAYMELSSLRSEDTAVYYCARGRRSGSYYMGYWGQGTLVTVSS
VL: EIVLTQSPATLSLSPGERATLSCRASQSVSSNLAWYQQKPGQAPRLLIYDTSTRATGIPARFSGSGSGTEFTLTISSLQSEDFAVYYCQQYNNWPPAYTFGQGTKLEIK
Consider B2, for which the “binding to human CD276 (OD at 450 nm, ELISA)” value in data set [4] is given as “bound”. Besides, the “binding to mouse CD276 (OD at 450 nm, ELISA)” value in data set [5] is “bound”.

B3: m857: anti-CD276 antibody clone, heavy chain comprising SEQ ID NO: 17 and light chain comprising SEQ ID NO: 18 (antibody, V domains shown)
VH: B1 VH with R98T, H105A, M106F, V108I, K111Q, T114M
VL: B1 VL with R97S, I98Y, R105K
On to B3, for which, in data set [4], the “binding to human CD276 (OD at 450 nm, ELISA)” value is given as “bound”. Further, the “binding to mouse CD276 (OD at 450 nm, ELISA)” value in data set [5] is “bound”.

These data come from patent publication US11851498B2, “Anti-CD276 antibodies (B7H3)” (THE UNITED STATES OF AMERICA, as represented by THE …, priority 2014, dated 2023).
